From patent US11959098B2, “Methods and culture media for culturing pluripotent stem cells” (Technion Research & Development Foundation Limited, priority 2010, dated 2024)
Entries after “also recorded” stand apart in the source; their conditions may differ.

Assays:
[1] = test system: C2 cell line (iPS cell line derived from foreskin fibroblast); test: Endodermal differentiation of pluripotent stem cells cultured in suspension; assay type: cell-based, human
Procedure: Differentiation into endodermal cells—Cells cultured in suspension with cell clumps from C2 cell line (iPS cell line derived from foreskin fibroblast) were cultured in suspension for at least 10 passages. Then the factors were removed from the culture medium and the cells were exposed to 10 ng/ml Activin for 48 hours, in medium containing cAMP increasers such as foreskulin, 8-bromocAMP, GABA, IBMX and DBC. Ten days later the cells were analyzed for endodermal markers. […] As shown in FIGS. 10A-10B the differentiated cells express PDX1, a transcription factor indicating differentiation into endoderm lineage, mainly into β-cells.
C2 cells were cultured for more than 10 passages as single cells in suspension in the pCM100F culture medium. For endoderm differentiation, the bFGF and the IL6RIL6 chimera were removed from the culture medium and activin A at concentration of 10 ng/ml was added for 48 hours in a suspension culture. 10 days after exposure to activin A, the cells were plated on Matrigel™ or HFF (human foreskin fibroblast) matrix, or were cultured in a 3-dimensional culture system (in suspension) and were stained to PDX1.

[2] = test system: hESCs cultured in suspension; test: Neural differentiation of pluripotent stem cells cultured in suspension; assay type: cell-based, human; conditions: hESC single cells; retinoic acid (10^−3 M) or Noggin (10 ngr/ml); three weeks after induction
Procedure: Neural differentiation—To induce neural differentiation single cells cultured in suspension were transferred to a medium without bFGF and the IL6RIL6 chimera. Either retinoic acid (10^−3 M) or Noggin (10 ngr/ml) were added for three to seven days. Three weeks after differentiation induction, the cells were plated for staining with fibronectin. The cells were stained for O4 (oligodendrocytes marker), GFAP (Glial fibrillary acidic protein), nestin and β-tubulin.
Differentiation into neuronal cells—Cells from the four tested cell lines (I3, I4, I6 and H9.2) were cultured in suspension with cell clump for at least 25 passages. Then, the factors were removed from the culture medium and 5×10^−5 M Retinoic acid was added for 21 Days. The cells were then transferred to fibronectin coated plates and cultured for additional 5 days before harvesting the cells for analysis.
Human ESCs which are cultured in suspension as single cells are capable of differentiating into the neuronal cell linage—To induce neural differentiation, hESCs which are cultured in suspension as single cells were transferred to a neuronal differentiating medium (without bFGF and the IL6RIL6 chimera) which included either retinoic acid (10^−3 M) or Noggin (10 ngr/ml) as described under “General Materials and Experimental Methods” hereinabove. […]

[3] = C2 clumps, 10 ng/ml for 48 hours with cAMP increasers, ten days later

B1: activin A: activin A at concentration of 10 ng/ml added for endoderm differentiation (protein, UniProt P08476 311-426, looked up)
Inhibin beta A chain: GLECDGKVNICCKKQFFVSFKDIGWNDWIIAPSGYHANYCEGECPSHIAGTSGSSLSFHSTVINHYRMRGHSPFANLKSCCVPTKLRPMSMLYYDDGQNIIKKDIQNMIVEECGCS
modifications: Inhibin beta A chain
[1]; [3]
  PDX1 expression (immunofluorescence): express PDX1
  Sox17 expression (quantitative RT-PCR) versus non-treated controls: significant increase in Sox17 expression
[1]; C2 single cells, 10 ng/ml for 48 hours in suspension
  SOX 17 gene expression (real time PCR): an increase could be observed during differentiation from day 2 to 10
[1]; C2 single cells, 10 ng/ml for 48 hours, 10 days after exposure
  PDX1 expression (immunostaining): all cells which are stained by DAPI (nuclear staining) are also stained with PDX1; also recorded: expression of PDX1 in the cells

B2: Noggin: Noggin (10 ngr/ml) added to induce neural differentiation (protein, UniProt Q13253 28-232, looked up)
Noggin: QHYLHIRPAPSDNLPLVDLIEHPDPIFDPKEKDLNETLLRSLLGGHYDPGFMATSPPEDRPGGGGGAAGGAEDLAELDQLLRQRPSGAMPSEIKGLEFSEGLAQGKKQRLSKKLRRKLQMWLWSQTFCPVLYAWNDLGSRFWPRYVKVGSCFSKRSCSVPEGMVCKPSKSVHLTVLRWRCQRRGGQRCGWIPIQYPIISECKCSC
[2]
  differentiation into neuronal progenitor cells (GFAP, O4, β-Tubulin, Nestin staining): differentiated into neuronal progenitor cells
